Measured values published in patent publication US9744220B2, “Compositions and methods for treating inflammatory diseases” (priority 2013, dated 2017).

How the values were obtained:
[1] = tested on: heart of mice with chronic Chagas cardiomyopathy (CCC); experiment: Chronic Chagas cardiomyopathy (CCC) mice, heart histology (H&E, Masson-Trichrome); type: in vivo; details: for cardiac fibrosis: IV, Masson-Trichrome
Protocol: FIG. 3A depicts in vivo experimental design, groups, treatment and timeline for the infective and anti-inflammatory effects of sPDNF. C57BL/6 mice (7 per group) were injected intraperitoneally with T cruzi Colombian strain (8×10^2 per mouse) and, four months later, intravenously with PBS (vehicle) or sPDNF (1 mg/kg body weight) at 0, 3, and 24 hours, weekly for 3 weeks. Mice were sacrificed 50 days after the first set of IV sPDNF treatment. FIG. 3B are images of heart (ventricle) paraffin-embedded, sectioned, and stained with H&E. Arrows indicate foci of inflammatory infiltrates, which were abundant in sham-treated (IV PBS) CCC mice and rare in IV sPDNF-treated CCC mice. Similar histology was found in other tissue sections and in a distinct set of sPDNF-treated and PBS-sham mice.
Same mice and experimental protocol as described in FIG. 3A were used except that paraffin-embedded heart sections were stained with Masson-Trichrome to visualize collagen in fibrotic areas (blue) and viable muscle fibers (red). FIGS. 4A and 4B display sections of atria of mice with CCC administered IV PBS or IV sPDNF, respectively. FIG. 4C is a graph showing the amount of cardiac fibrosis, as determined using ImageJ software (NIH) in four distinct sections of atria and ventricles. Relative cardiac fibrosis is defined as the ratio of blue pixels to total pixels (blue+red) normalized to corresponding areas of the heart of uninfected mice set at 1.0 (dotted line); **, P<0.01, ns, not significant relative uninfected hearts.

H9c2 cardiomyocytes = experiment: sPDNF stimulation of H9c2 cardiomyocytes, secretion by ELISA; type: cell-based, rat; details: H9c2, 3 hr
Protocol: FIG. 8A is a graph showing dose-response of MCP-1 secretion to sPDNF stimulation. H9c2 cardiomyocytes were plated in 6-well plates, grown in low serum (0.1% FCS) overnight, and stimulated with the indicated doses of sPDNF for 3 hr. Secretion of MCP-1, MIP-2α and IL-6 was determined by ELISA. FIG. 8B is a graph showing dose-response of MCP-transcript expression. H9c2 cardiomyocytes were plated in 6-well plates, grown in low serum (0.1%) overnight, and stimulated with the indicated doses of sPDNF for 3 hr, and MCP-transcript quantified by qPCR. Chemokine gene expression was normalized to HPRT and fold change calculated relative to vehicle-treated cells. Points represent mean±SD fold change expression of triplicate samples; *P<0.05, **P<0.01, and ***P<0.005. FIG. 8C is a graph showing time course of MCP-1 and FKN transcripts expression. H9c2 cardiomyocytes were plated in 6-well plates (triplicate), grown in low serum (0.1%) overnight, stimulated with sPDNF (1 μg/ml) for the indicated times, and MCP-1 and FKN (data not shown) transcripts quantified by qPCR. Three experiments gave similar results.
Primary cardiomyocytes and cardiac fibroblasts, and H9c2 cardiomyocytes were seeded at 6-8×10^4 cells per well in DMEM/10% FCS and allowed to adhere overnight, serum starved (DMEM/0.1% FCS overnight), and treated with sPDNF (0.5 ng/ml-8 μg/ml, 0-16 h). Cell supernatants were collected and stored at −80° C. and cell monolayers rinsed with PBS and collected in Trizol for qPCR analysis.
MCP-1: 96-well Maxisorp plates (Nunc) were coated overnight with relevant supernatants or MCP-1 standards (R&D Systems, 479-JE/CF) in coating buffer (50 mM NaHCO3/Na2CO3, pH 9.6, 0.02% NaN3), blocked in 5% BSA/PBST, reacted with a MCP-1 detection antibody (Santa Cruz, SC-28879; 1:200; 2 hr), and then alkaline-phosphatase (AP) conjugated secondary antibody (Sigma A3687; 1:1000; 1 hr). Between each step, plates were washed 2-4 times with PBST. […] MCP-1 concentrations were calculated relative to a 4-parametric standard curve using the SOFTmax Pro program. […]

MCP-1 and FKN = experiment: IV sPDNF into TLR-deficient MyD88-/- mice, MCP-1 and FKN; type: in vivo; details: IV 100 μg per mouse, 3 hr post-injection
Protocol: Wild type C57BL/6 mice were used in the results depicted in FIGS. 11A-11D. FIG. 11A is a graph depicting that a single dose of intravenous (IV) sPDNF increased MCP-1 and FKN transcripts in the heart in a pulse-like response. Groups of mice (2 per group) were injected with vehicle (Veh) or sPDNF (150 μg/mouse) and sacrificed at 3, 6, 9 and 12 hr post-injection, and cardiac MCP-1 and FKN transcripts were quantified by qPCR. Points represent fold change of the mean±SD relative to Veh injected mice; *P<0.05 and **P<0.01. Experiment repeated three times with similar results; liver also responded with similar pulselike kinetics. FIG. 11B is a graph depicting that organ distribution of MCP-1 increased following a single IV dose of sPDNF. Experimental design analogous to that summarized above. FIG. 11C is a graph showing that a single IV dose of sPDNF augments MCP-1 and FKN transcripts dose-dependently in the heart. […] For the results depicted in FIGS. 11C and 11D, groups of three mice were injected with various doses of sPDNF, and heart and liver harvested 3 hr post-injection to quantify MCP-1 and FKN by qPCR. […]
To ensure that the response observed in wild type mice was not due to TLR activation, MCP-1 and FKN response to IV sPDNF was assessed in TLR-deficient MyD88^−/− mice (23).

B1: sPDNF: N-terminal short-form of T cruzi PDNF that contains Trk-binding sites, recombinant; amino acids 1-588 of SEQ ID NO: 2; JR-100 is the commercial name (protein, listed as Trypanosoma cruzi)
chain: MGKTVVVASRMFWLMFFVPLLLAICPSEPAYALAPGSSRVELFKRKNSTVPFEDKAGKVTERVVHSFRLPALVNVDGVMVAIADARYDTSNDNSLIDTVAKYSVDDGETWETQIAIKNSRVSSVSRVVDPTVIVKGNKLYVLVGSYYSSRSYWSSHGDARDWDILLAVGEVTKSTAGGKITASIKWGSPVSLKKFFPAEMEGMHTNQFLGGAGVAIVASNGNLVYPVQVTNKKKQVFSKIFYSEDDGKTWKFGKGRSDFGCSEPVALEWEGKLIINTRVDWKRRLVYESSDMEKPWVEAVGTVSRVWGPSPKSNQPGSQSSFTAVTIEGMRVMLFTHPLNFKGRWLRDRLNLWLTDNQRIYNVGQVSIGDENSAYSSVLYKDDKLYCLHEINTDEVYSLVFARLVGELRIIKSVLRSWKNWDSHLSSICTPADPAASSSESGCGPAVTTVGLVGFLSGNASQNVWEDAYRCVNASTANAERVRNGLKFAGVGGGALWPVSQQGQNQRYRFANHAFTLVASVTIHEAPRAASPLLGASLDSSGGKKLLGLSYDEKHQWQPIYGSTPVTPTGSWETGKRYHLVLTMANKI
inflammatory infiltrates in the heart ([1]; IV 1 mg/kg at 0, 3, 24 hours weekly for 3 weeks, 1 mg/kg): dramatic reduction and rare | cardiac fibrosis [1]: reduced | cardiac fibrosis ([1]; listed as PDNF fragment): nearly eliminated | secretion of IL-6 (H9c2 cardiomyocytes): did not alter | secretion of macrophage inflammatory protein-2a/MIP-2a/CXCL2 (H9c2 cardiomyocytes): did not alter | secretion of MCP-1 (H9c2 cardiomyocytes; dose-dependently): dramatically increased | expression of FKN in the heart and liver (MCP-1 and FKN): sharp increase | expression of MCP-1 in the heart and liver (MCP-1 and FKN): sharp increase
